Assay results taken from the MegaScale stability set (Tsuboyama et al. 2023).

B1: EHEE_rd2_0601 (parent)
chain: TYTYKLTDEEASRRAEDEWRNRGYDVRVRNNNGTWEVEVR

Variants of: B1
Test: folding stability dG (cDNA display proteolysis); higher = more stable
Settings: PBS, room temperature
For V28Y, the “folding stability dG” value was 0.207 kcal/mol.
For V28R, the “folding stability dG” value was 1.38 kcal/mol.
With V28D the “folding stability dG” value was -0.612 kcal/mol.
With V28H the “folding stability dG” value was -0.199 kcal/mol.
In the case of V28A, the “folding stability dG” value is reported as 0.322 kcal/mol.
With V28L the “folding stability dG” value was 0.62 kcal/mol.
In the case of V28I, the “folding stability dG” value is reported as 1.44 kcal/mol.
In the case of V28T, the “folding stability dG” value is reported as 0.683 kcal/mol.
For E18H, the “folding stability dG” value was 1.83 kcal/mol.
With E18K the “folding stability dG” value was 1.43 kcal/mol.
In the case of E18F, the “folding stability dG” value is reported as 2.71 kcal/mol.
In the case of E18I, the “folding stability dG” value is reported as 1.74 kcal/mol.
With E18S the “folding stability dG” value was 1.25 kcal/mol.
In the case of T7E, the “folding stability dG” value is reported as 1.85 kcal/mol.
With T7P the “folding stability dG” value was 2.05 kcal/mol.
For T7Q, the “folding stability dG” value was 1.86 kcal/mol.
With T7S the “folding stability dG” value was 1.63 kcal/mol.
For T7R, the “folding stability dG” value was 1.61 kcal/mol.
For T7H, the “folding stability dG” value was 1.69 kcal/mol.
For V39T, the “folding stability dG” value was -0.975 kcal/mol.
With V39L the “folding stability dG” value was 0.587 kcal/mol.
In the case of V39A, the “folding stability dG” value is reported as -0.517 kcal/mol.
In the case of V39M, the “folding stability dG” value is reported as -0.536 kcal/mol.
For V39I, the “folding stability dG” value was 1.41 kcal/mol.
In the case of V39Y, the “folding stability dG” value is reported as -0.431 kcal/mol.
In the case of V37A, the “folding stability dG” value is reported as -0.419 kcal/mol.
For V37M, the “folding stability dG” value was 0.715 kcal/mol.
With V37H the “folding stability dG” value was 0.241 kcal/mol.
For G23Q, the “folding stability dG” value was -0.624 kcal/mol.
For G23F, the “folding stability dG” value was -0.542 kcal/mol.
With N30L the “folding stability dG” value was 1.6 kcal/mol.
For N30Q, the “folding stability dG” value was 1.51 kcal/mol.
With N30Y the “folding stability dG” value was 2.33 kcal/mol.
In the case of N30E, the “folding stability dG” value is reported as 1.7 kcal/mol.
For N30S, the “folding stability dG” value was 1.1 kcal/mol.
For N30F, the “folding stability dG” value was 2.29 kcal/mol.
With N30A the “folding stability dG” value was 1.03 kcal/mol.
For N30V, the “folding stability dG” value was 1.43 kcal/mol.
For N30T, the “folding stability dG” value was 0.81 kcal/mol.
With V26A the “folding stability dG” value was 0.393 kcal/mol.
For V26I, the “folding stability dG” value was 0.319 kcal/mol.
For D25G, the “folding stability dG” value was 0.602 kcal/mol.
For D25P, the “folding stability dG” value was 0.219 kcal/mol.
In the case of D25Q, the “folding stability dG” value is reported as 1.64 kcal/mol.
With D25V the “folding stability dG” value was 1.52 kcal/mol.
For D25W, the “folding stability dG” value was 1.53 kcal/mol.
With D25E the “folding stability dG” value was 1.82 kcal/mol.
In the case of D25H, the “folding stability dG” value is reported as 1.56 kcal/mol.
In the case of W19L, the “folding stability dG” value is reported as 0.884 kcal/mol.
For W19M, the “folding stability dG” value was 0.446 kcal/mol.
In the case of W19I, the “folding stability dG” value is reported as -0.516 kcal/mol.
With W19E the “folding stability dG” value was -0.502 kcal/mol.
In the case of G33L, the “folding stability dG” value is reported as -0.48 kcal/mol.
In the case of G33T, the “folding stability dG” value is reported as -0.078 kcal/mol.
With G33Y the “folding stability dG” value was -0.464 kcal/mol.
In the case of G33C, the “folding stability dG” value is reported as 0.74 kcal/mol.
In the case of G33K, the “folding stability dG” value is reported as -0.238 kcal/mol.
With G33E the “folding stability dG” value was 0.259 kcal/mol.
With G33N the “folding stability dG” value was 0.553 kcal/mol.
For E16Y, the “folding stability dG” value was 1.86 kcal/mol.
For E16R, the “folding stability dG” value was 1.19 kcal/mol.
For E16M, the “folding stability dG” value was 1.68 kcal/mol.
For E16N, the “folding stability dG” value was 0.335 kcal/mol.
In the case of E16K, the “folding stability dG” value is reported as 0.777 kcal/mol.
In the case of E16Q, the “folding stability dG” value is reported as 1.46 kcal/mol.
In the case of E16P, the “folding stability dG” value is reported as -0.034 kcal/mol.
With E16W the “folding stability dG” value was 1.3 kcal/mol.
For E16A, the “folding stability dG” value was 2.56 kcal/mol.
For E16G, the “folding stability dG” value was 1.4 kcal/mol.
For E16V, the “folding stability dG” value was 2 kcal/mol.
In the case of R40S, the “folding stability dG” value is reported as 1.71 kcal/mol.
In the case of R40M, the “folding stability dG” value is reported as 1.41 kcal/mol.
For R40L, the “folding stability dG” value was 1.43 kcal/mol.
In the case of R40A, the “folding stability dG” value is reported as 1.03 kcal/mol.
With R40K the “folding stability dG” value was 1.29 kcal/mol.
For A15H, the “folding stability dG” value was 1.43 kcal/mol.
In the case of A15W, the “folding stability dG” value is reported as 1.36 kcal/mol.
In the case of A15K, the “folding stability dG” value is reported as 1.37 kcal/mol.
In the case of A15L, the “folding stability dG” value is reported as 2.46 kcal/mol.
In the case of A15S, the “folding stability dG” value is reported as 0.658 kcal/mol.
For A15R, the “folding stability dG” value was 0.442 kcal/mol.
In the case of N31T, the “folding stability dG” value is reported as 1.21 kcal/mol.
For N31M, the “folding stability dG” value was 1.31 kcal/mol.
In the case of N31W, the “folding stability dG” value is reported as 1.02 kcal/mol.
With N31E the “folding stability dG” value was 1.12 kcal/mol.
With N31K the “folding stability dG” value was 1.16 kcal/mol.
With N31I the “folding stability dG” value was 1.76 kcal/mol.
For N31V, the “folding stability dG” value was 1.83 kcal/mol.
With N31L the “folding stability dG” value was 1.51 kcal/mol.
In the case of N31F, the “folding stability dG” value is reported as 1.42 kcal/mol.
For Y4F, the “folding stability dG” value was 1.94 kcal/mol.
For Y4Q, the “folding stability dG” value was 0.276 kcal/mol.
In the case of Y4I, the “folding stability dG” value is reported as 1.58 kcal/mol.
With Y4M the “folding stability dG” value was 1.14 kcal/mol.
For Y4W, the “folding stability dG” value was 1.12 kcal/mol.
With Y4L the “folding stability dG” value was 1.36 kcal/mol.
In the case of Y4E, the “folding stability dG” value is reported as 0.419 kcal/mol.
With Y4K the “folding stability dG” value was -0.308 kcal/mol.
For Y4T, the “folding stability dG” value was -0.316 kcal/mol.
With D8I the “folding stability dG” value was 0.306 kcal/mol.
With D8V the “folding stability dG” value was -0.022 kcal/mol.
In the case of D8Q, the “folding stability dG” value is reported as 0.142 kcal/mol.
With D8H the “folding stability dG” value was 0.365 kcal/mol.
With D17Q the “folding stability dG” value was 2.08 kcal/mol.
With D17K the “folding stability dG” value was 2.02 kcal/mol.
In the case of D17R, the “folding stability dG” value is reported as 2.1 kcal/mol.
With D17F the “folding stability dG” value was 1.86 kcal/mol.
With D17Y the “folding stability dG” value was 1.77 kcal/mol.
In the case of D17L, the “folding stability dG” value is reported as 2.06 kcal/mol.
For D17E, the “folding stability dG” value was 1.99 kcal/mol.
For D17A, the “folding stability dG” value was 2.17 kcal/mol.
In the case of R27H, the “folding stability dG” value is reported as 1.56 kcal/mol.
With R27S the “folding stability dG” value was 1.69 kcal/mol.
With R27E the “folding stability dG” value was 1.6 kcal/mol.
With R27W the “folding stability dG” value was 1.27 kcal/mol.
In the case of R27L, the “folding stability dG” value is reported as 1.68 kcal/mol.
With R27F the “folding stability dG” value was 1.67 kcal/mol.
With R27V the “folding stability dG” value was 2.05 kcal/mol.
In the case of R27N, the “folding stability dG” value is reported as 1.36 kcal/mol.
In the case of R27M, the “folding stability dG” value is reported as 1.49 kcal/mol.
In the case of R27G, the “folding stability dG” value is reported as 0.575 kcal/mol.
In the case of Y2W, the “folding stability dG” value is reported as 2.04 kcal/mol.
With Y2I the “folding stability dG” value was 1.69 kcal/mol.
With Y2K the “folding stability dG” value was 1.33 kcal/mol.
In the case of T1V, the “folding stability dG” value is reported as 1.86 kcal/mol.
For T1E, the “folding stability dG” value was 0.815 kcal/mol.
With T1K the “folding stability dG” value was 1.28 kcal/mol.
For T1Q, the “folding stability dG” value was 1.03 kcal/mol.
In the case of T1F, the “folding stability dG” value is reported as 1.73 kcal/mol.
In the case of R14V, the “folding stability dG” value is reported as 1.29 kcal/mol.
With R14G the “folding stability dG” value was 0.487 kcal/mol.
In the case of R14I, the “folding stability dG” value is reported as 1.35 kcal/mol.
With W35M the “folding stability dG” value was -0.533 kcal/mol.
For W35C, the “folding stability dG” value was -0.208 kcal/mol.
For W35V, the “folding stability dG” value was -0.844 kcal/mol.
For W35P, the “folding stability dG” value was -0.671 kcal/mol.
For W35Y, the “folding stability dG” value was 0.894 kcal/mol.
With E10K the “folding stability dG” value was 1.19 kcal/mol.
For E10Y, the “folding stability dG” value was 1.29 kcal/mol.
For E10S, the “folding stability dG” value was 1.22 kcal/mol.
For E10H, the “folding stability dG” value was 1.09 kcal/mol.
In the case of E10R, the “folding stability dG” value is reported as 1.06 kcal/mol.
With E10A the “folding stability dG” value was 1.75 kcal/mol.
With E10T the “folding stability dG” value was 1.23 kcal/mol.
With E9Q the “folding stability dG” value was 1.07 kcal/mol.
In the case of E9V, the “folding stability dG” value is reported as 0.885 kcal/mol.
In the case of E9A, the “folding stability dG” value is reported as 1.12 kcal/mol.
In the case of E9T, the “folding stability dG” value is reported as 0.198 kcal/mol.
For E9L, the “folding stability dG” value was 1.14 kcal/mol.
For R29N, the “folding stability dG” value was 1.17 kcal/mol.
In the case of R29I, the “folding stability dG” value is reported as 1.78 kcal/mol.
In the case of R29Y, the “folding stability dG” value is reported as 1.74 kcal/mol.
For R29G, the “folding stability dG” value was 0.418 kcal/mol.
In the case of R29E, the “folding stability dG” value is reported as 0.726 kcal/mol.
In the case of R29V, the “folding stability dG” value is reported as 1.67 kcal/mol.
In the case of R29C, the “folding stability dG” value is reported as 1.06 kcal/mol.
With R29W the “folding stability dG” value was 1.56 kcal/mol.
With R13H the “folding stability dG” value was 0.979 kcal/mol.
For R13V, the “folding stability dG” value was 0.764 kcal/mol.
In the case of R13G, the “folding stability dG” value is reported as 0.328 kcal/mol.
In the case of R13N, the “folding stability dG” value is reported as 0.767 kcal/mol.
In the case of R13T, the “folding stability dG” value is reported as 0.582 kcal/mol.
With R13L the “folding stability dG” value was 1.08 kcal/mol.
With N32T the “folding stability dG” value was 0.049 kcal/mol.
With N32H the “folding stability dG” value was 1.07 kcal/mol.
In the case of N32D, the “folding stability dG” value is reported as 1.16 kcal/mol.
In the case of N32R, the “folding stability dG” value is reported as 0.859 kcal/mol.
